Source: patent US20200093922A1 (AGENCY FOR SCIENCE TECHNOLOGY AND RESEARCH, published 2020)

What was measured:
[1] = target: biotinylated murine PD-L1 (murine, UniProt Q9EP73 19-238, limits assumed, biotinylated (site not stated)); assay: blocking ELISA: biotinylated murine PD-L1 pre-incubated with Fab, then added to coated murine PD-1-Fc (blocked partner), streptavidin-HRP
[2] = target: T1, murine PD-L1 coupled to human Fc (murine, UniProt Q9EP73 19-238, limits assumed); assay: ELISA on coated murine PD-L1-Fc, Fab detected with anti-human Fab-HRP, absorbance 450-670 nm
T1 construct: also called murine PD-L1-Fc; mouse PD-L1 coupled to Fc; not shown: human Fc
T1 sequence (Q9EP73 19-238 limits assumed): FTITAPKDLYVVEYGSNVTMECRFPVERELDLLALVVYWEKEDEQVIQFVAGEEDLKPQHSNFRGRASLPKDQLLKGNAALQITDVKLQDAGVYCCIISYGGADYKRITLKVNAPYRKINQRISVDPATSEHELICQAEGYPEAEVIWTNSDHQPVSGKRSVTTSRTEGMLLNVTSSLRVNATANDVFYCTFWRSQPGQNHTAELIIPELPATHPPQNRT
Procedure: After 90 minutes at room temperature under agitation and extensive washes, a goat anti-human Fab antibody coupled to HRP was added. One hour later, plates were washed and TMB substrate added. The reaction was stopped with 1M HCl and optical density measured at 450 nm with a reference at 670 nm.

biotinylated human PD-L1 = biotinylated human PD-L1 (human, UniProt Q9NZQ7 19-238, limits assumed, biotinylated (site not stated)); assay: blocking ELISA: biotinylated human PD-L1 pre-incubated with Fab, then added to coated human PD-1-Fc (blocked partner), streptavidin-HRP
Sequence of biotinylated human PD-L1 (Q9NZQ7 19-238 limits assumed): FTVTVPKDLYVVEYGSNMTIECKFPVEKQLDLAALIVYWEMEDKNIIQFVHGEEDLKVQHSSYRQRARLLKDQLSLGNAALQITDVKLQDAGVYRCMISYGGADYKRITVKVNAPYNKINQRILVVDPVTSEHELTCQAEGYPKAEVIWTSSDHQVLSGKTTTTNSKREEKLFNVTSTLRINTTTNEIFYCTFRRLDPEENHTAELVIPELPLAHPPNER

[3] = target: T2, PD-L1 on MDA-MB-231 human breast cancer cells (human, UniProt Q9NZQ7 19-290); assay: flow cytometry on MDA-MB-231 cells expressing PD-L1, MFI against IgG1 (nM)
T2 construct: whole, on cells; also called cells expressing PD-L1
T2 sequence (Q9NZQ7 19-290): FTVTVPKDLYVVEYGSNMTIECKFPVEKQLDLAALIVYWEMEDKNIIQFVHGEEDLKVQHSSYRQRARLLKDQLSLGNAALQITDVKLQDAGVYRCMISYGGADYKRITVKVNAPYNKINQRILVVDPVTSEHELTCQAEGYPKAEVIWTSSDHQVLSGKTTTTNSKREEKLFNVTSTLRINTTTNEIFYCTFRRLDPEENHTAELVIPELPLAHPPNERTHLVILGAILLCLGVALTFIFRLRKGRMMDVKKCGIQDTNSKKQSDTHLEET

[4] = target: T3, human PD-L1 expressed on transfected HEK 293 cells (human, UniProt Q9NZQ7 19-290); assay: flow cytometry blocking assay: antibody mixed with human PD-1-PE (blocked partner), added to HEK293 cells transfected with human PD-L1
T3 construct: whole, on cells; also called PD-L1 transfected cells; HEK293-6E cells transfected with human PD-L1
T3 sequence (Q9NZQ7 19-290): as above
Source text: Cells were washed 3 times with PBS and all data were collected on a BD FACSCanto II (BD Bioscience) and analysed on BD FACSDiva software (BD Bioscience).

Sequence of biotinylated murine PD-L1 (Q9EP73 19-238 limits assumed): as the sequence (Q9EP73 19-238 limits assumed) above

| Binder | binding result [1] | binding result [2] | IC50 (read off the curve) (biotinylated human PD-L1) | IC50 (read off the curve) [4] | also measured |
| --- | --- | --- | --- | --- | --- |
| anti-PD-L1 antibody C4 in IgG1 format (antibody, V domains shown, also called C4 IgG1) VH: QVQLQQSGAEVKKPGSSVKVSCKASGGTFSSYAISWVRQAPGQGLEWMGRIIPILGIANYAQKFQGRVTITADKSTSTAYMELSSLRSEDTAVYYCARGGYGGNSLYAFDIWGQGTMVTVSS VL: QSVVTQPPSVSAAPGQKVTISCSGSSSNIGNNYVSWYQQLPGTAPKLLIYDNNERLSGIPDRFSGSKSGTSATLGISGLQTGDEADYYCGTWDSSLSVVVFGGGTKLTVL |  |  |  |  | EC50 (read off the curve) [3]: ~200 nM |
| anti-PD-L1 antibody H12_GL in IgG4 format (antibody, V domains shown, IgG4; also called H12_GL-IgG4) VH: QVQLVQSGAEVKKPGSSVKVSCKASGGTFSSYAISWVRQAPGQGLEWMGRIIPILGIANYAQKFQGRVTITADKSTSTAYMELSSLRSEDTAVYYCARSGHGYSYGAFDYWGQGTLVTVSS VL: QSVLTQPPSVSGAPGQRVTISCTGSSSNIGAGYDVHWYQQLPGTAPKLLIYGNSNRPSGVPDRFSGSKSGTSASLAITGLQAEDEADYYCQSYDSSLSGSYVVFGGGTKLTVL |  |  |  | ~8 nM |  |
| anti-PD-L1 antibody H12_GL in IgG1 format (antibody, V domains shown, H12 with its framework reverted to germline-like; IgG1; also called H12_GL-IgG1) VH: QVQLVQSGAEVKKPGSSVKVSCKASGGTFSSYAISWVRQAPGQGLEWMGRIIPILGIANYAQKFQGRVTITADKSTSTAYMELSSLRSEDTAVYYCARSGHGYSYGAFDYWGQGTLVTVSS VL: QSVLTQPPSVSGAPGQRVTISCTGSSSNIGAGYDVHWYQQLPGTAPKLLIYGNSNRPSGVPDRFSGSKSGTSASLAITGLQAEDEADYYCQSYDSSLSGSYVVFGGGTKLTVL |  |  |  | ~8 nM |  |
| anti-PD-L1 antibody H12 in IgG4 format (antibody, V domains shown, IgG4; also called H12-IgG4) VH: EVQLVQSGAEVKKPGASVKVSCKASGGTFSSYAISWVRQAPGQGLEWMGRIIPILGIANYAQKFQGRVTITADKSTSTAYMELSSLRSEDTAVYYCARSGHGYSYGAFDYWGQGTL VL: QSVLTQPPSVSGAPGQRVTISCTGSSSNIGAGYDVHWYQQLPGTAPKLLIYGNSNRPSGVPDRFSGSKSGTSASLAITGLQAEDEADYYCQSYDSSLSGSYVVFGGGTKLTVL |  |  |  | ~8 nM |  |

More lines, main results first:

| binding result [1] | binding result [2] | IC50 (read off the curve) (biotinylated human PD-L1) | IC50 (read off the curve) [4] | Binder | also measured |
| --- | --- | --- | --- | --- | --- |
| binds | binds | ~50 nM |  | anti-PD-L1 antibody clone C4, Fab format (Fab, V domains shown, Tested as Fab) VH: QVQLQQSGAEVKKPGSSVKVSCKASGGTFSSYAISWVRQAPGQGLEWMGRIIPILGIANYAQKFQGRVTITADKSTSTAYMELSSLRSEDTAVYYCARGGYGGNSLYAFDIWGQGTMVTVSS VL: QSVVTQPPSVSAAPGQKVTISCSGSSSNIGNNYVSWYQQLPGTAPKLLIYDNNERLSGIPDRFSGSKSGTSATLGISGLQTGDEADYYCGTWDSSLSVVVFGGGTKLTVL |  |
| binds | binds | ~50 nM |  | anti-PD-L1 antibody clone C2, Fab format (Fab, V domains shown, Tested as Fab) VH: QVQLQQSGAEVKKPGSSVKVSCKASGGTFSSYAISWVRQAPGQGLEWMGRIIPILGIANYAQKFQGRVTITADKSTSTAYMELSSLRSEDTAVYYCARGGSYGSLYAFDIWGQGTTVTVSS VL: SYELTQPPSVSVAPGKTTRITCGGDNIGRKSVHWYQQRPGQAPLLLVYDDGDRPSGIPDRFSGSNSGNTATLTISGTQAMDEADYYCQAWDSTVVFGGGTRLTVL |  |
